{"source": "paper PMC8379094", "about": "(Cell Reports, 2021)", "binders": {"B1": {"name": "BL6 mAb (antibody, V domains shown)", "VH": "EVQLVESGGGLVQPGRSLRLSCEVSGFTFEDYDMQWVRQAPGKGLEWVSGISWNGGIIGYGDSVKGRFTISRDNAKNSLYLQMNSLRGEDTALYSCAKALHSGDDSGQQAFDIWGQGTMVTVSS", "VL": "SYVLTQPPSVSVAPGQTAKITCGENNIGRRSVHWYQQKPGQAPVLVIFNDSDRPSGIPERFSGSMSGNTATLTISRVEAGDEADYYCQVWDSGSDHVVFGGGTELTVL"}}, "key": {"[1]": {"target": "SARS-CoV-2 spike S1 subunit, wild type, recombinant (SARS-CoV-2, WT (QHD43416, Wuhan-Hu-1), UniProt P0DTC2)", "experiment": "BLI"}, "[2]": {"target": "SARS-CoV-2 spike receptor binding domain, wild type, recombinant (Severe acute respiratory syndrome …, UniProt P0DTC2)", "experiment": "BLI"}}}
{"binder": "B1", "values": [{"measurement": "binding result", "setting": "[1]", "result": "binds"}, {"measurement": "binding result", "setting": "[2]", "result": "binds"}]}
